Measured values as given in publication PMC3829993.

Assays:
[1] = substrate: NC(=O)C1=CN([C@@H]2O[C@H](COP(=O)(O)OP(=O)(O)OC[C@H]3O[C@@H](n4cnc5c(N)ncnc54)[C@H](OP(=O)(O)O)[C@@H]3O)[C@@H](O)[C@H]2O)C=CC1; assay: purified protein; conditions: varied: cofactor
[2] = substrate: NC(=O)C1=CN([C@@H]2O[C@H](COP(=O)(O)OP(=O)(O)OC[C@H]3O[C@@H](n4cnc5c(N)ncnc54)[C@H](O)[C@@H]3O)[C@@H](O)[C@H]2O)C=CC1; assay: purified protein; conditions: varied: cofactor

B1: SMFMO (Stenotrophomonas maltophilia K279a) (protein)
chain: MDSVDVVVIGGGQSGLSAGYFLRRSGLSYVILDAEASPGGAWQHAWHSLHLFSPAGWSSIPGWPMPASQGPYPARAEVLAYLAQYEQKYALPVLRPIRVQRVSHFGERLRVVARDGRQWLARAVISATGTWGEAYTPEYQGLESFAGIQLHSAHYSTPAPFAGMRVAIIGGGNSGAQILAEVSTVAETTWITQHEPAFLADDVDGRVLFERATERWKAQQEGREPDLPPGGFGDIVMVPPVLDARARGVLAAVPPPARFSPTGMQWADGTERAFDAVIWCTGFRPALSHLKGLDLVTPQGQVEVDGSGLRALAVPSVWLLGYGDWNGMASATLIGVTRYAREAVRQVTAYCADHQDR
**Q.** With B1 as the protein, how does the Km [1] read?
**A.** 27.3 ± 5.3 M x 10^-6

**Q.** And the kcat [1]?
**A.** 0.022 ± 0.002 s⁻¹

**Q.** And the kcat/Km [1]?
**A.** 805 M⁻¹ s⁻¹

**Q.** What about the Km [2] of the same protein?
**A.** 23.7 ± 9.1 M x 10^-6

**Q.** What about the kcat [2] of the same protein?
**A.** 0.029 ± 0.003 s⁻¹

**Q.** What about the kcat/Km [2] of the same protein?
**A.** 1220 M⁻¹ s⁻¹
